Measured values as given in publication PMC1092277.
Values belong to the molecule of their own block, whether it stands above or below them.

Tests used:
[1] = biological target: GST-Chx10 HD R44A (murine); assay: pull-down
[2] = biological target: GST-Pax6 HD R44A/R53A/R57A (zebrafish); assay: pull-down
[3] = biological target: GST-Pax6 HD (wild type) (zebrafish); assay: pull-down
[4] = biological target: GST-Pax6 HD N51Q (zebrafish, UniProt P26630 229-288, N279Q); assay: EMSA
[5] = biological target: GST-Chx10 HD R53A (mouse, UniProt Q61412 148-207, R200A); assay: EMSA
GST-Chx10 HD R53A, sequence (Q61412 148-207 R200A): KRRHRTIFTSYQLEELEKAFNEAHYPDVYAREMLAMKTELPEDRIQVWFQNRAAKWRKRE

[6] = biological target: GST-Pax6 HD R53A (zebrafish, UniProt P26630 229-288, R281A); assay: EMSA
GST-Pax6 HD R53A, sequence (P26630 229-288 R281A): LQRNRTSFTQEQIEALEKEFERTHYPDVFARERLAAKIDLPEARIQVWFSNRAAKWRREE

[7] = biological target: GST-Pax6 HD R57A (zebrafish, UniProt P26630 229-288, R285A); assay: EMSA
GST-Pax6 HD R57A, sequence (P26630 229-288 R285A): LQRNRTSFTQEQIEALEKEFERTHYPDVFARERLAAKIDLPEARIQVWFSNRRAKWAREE

[8] = biological target: GST-Pax6 HD R44A (zebrafish, UniProt P26630 229-288, R272A); assay: EMSA
GST-Pax6 HD R44A, sequence (P26630 229-288 R272A): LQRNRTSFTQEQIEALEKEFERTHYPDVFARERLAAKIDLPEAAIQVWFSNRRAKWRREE

[9] = biological target: GST-Chx10 HD Q50A (mouse, UniProt Q61412 148-207, Q197A); assay: EMSA
GST-Chx10 HD Q50A, sequence (Q61412 148-207 Q197A): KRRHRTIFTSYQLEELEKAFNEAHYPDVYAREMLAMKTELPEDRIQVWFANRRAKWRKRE

[10] = biological target: GST-Pax6 HD R58A (zebrafish, UniProt P26630 229-288, R286A); assay: EMSA
GST-Pax6 HD R58A, sequence (P26630 229-288 R286A): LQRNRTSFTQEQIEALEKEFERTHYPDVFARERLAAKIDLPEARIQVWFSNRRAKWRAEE

[11] = biological target: GST-Chx10 HD R57A (mouse, UniProt Q61412 148-207, R204A); assay: EMSA
GST-Chx10 HD R57A, sequence (Q61412 148-207 R204A): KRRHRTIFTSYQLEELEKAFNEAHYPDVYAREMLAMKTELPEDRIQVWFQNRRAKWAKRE

GST-Pax6 HD N51Q, sequence (P26630 229-288 N279Q): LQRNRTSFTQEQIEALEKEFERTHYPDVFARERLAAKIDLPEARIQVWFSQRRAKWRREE

Molecule: Pax6ΔHD (in vitro translated)
- percent binding [1]: 50%
- percent binding compared with the wild-type HD [2]: < 10%

- percent binding [3]: 11%
Molecule: Pax6ΔHD(E101A/E112A/E120A/E128A)

- percent residual binding [3]: 15%
Molecule: Pax6ΔHD(E112A/E120A/E128A)

- percent binding [3]: 5%
Molecule: Pax6ΔHD(E112A/E120A/D123A/E128A)

B1: HDp3 (dsDNA)
DNA 1: GATCCTCTAGATAATGCGATTAGCGTAG
DNA 2: GATCCTACGCTAATCGCATTATCTAGAG
- binding result [4]: no binding
- binding result [5]: no binding
- binding result [6]: no binding
- binding result [7]: binds
- binding result [8]: no binding
- binding result [9]: binds
- binding result [10]: binds
- binding result [11]: binds
